# Assay results from patent US20180171024A1.
# Tests used:
# [1] = biological target: HLA-A2 on other WT1 negative HLA-A2+ cells (other than 501, A498 and SKMEL; members not named); assay: flow cytometry on IM-9 cells (WT1 mRNA -)
# [2] = biological target: HLA-A2 on other WT1 negative HLA-A2+ cells (other than 501, A498 and SKMEL; members not named); assay: flow cytometry on U266 cells (WT1 mRNA -)
# [3] = biological target: HLA-A2 on other WT1 negative HLA-A2+ cells (other than 501, A498 and SKMEL; members not named); assay: flow cytometry on JVM-2 cells (WT1 mRNA -)
# [4] = biological target: Unloaded T2 (Homo sapiens); assay: flow cytometry, unloaded T2 cells; design: reference not given here
# [5] = biological target: HLA-A2/MAGE-A4 230-239 complex on cells (human); assay: flow cytometry, T2 cells loaded with 10^-4 M peptide
# [6] = biological target: HLA-A2/MAGE-A9 223-231 complex on T2 cells (human); assay: as above
# [7] = biological target: HLA-A2/PAP 112-120 complex on T2 cells (human); assay: as above
# [8] = biological target: HLA-A2 on HLA-A2+ cells that do not express WT1 (tumor cell lines, normal primary cells); assay: flow cytometry on SKMEL-5 melanoma cells (WT1 mRNA -)
# [9] = biological target: HLA-A2 on HLA-A2+ cells that do not express WT1 (tumor cell lines, normal primary cells); assay: flow cytometry on A498 cells (WT1 mRNA -)
# [10] = biological target: HLA-A2 on HLA-A2+/WT1+ BV173 cells (WT1 mRNA positive; WT1 126-134 peptide not detected by mass spectrometry of eluted HLA peptides); assay: flow cytometry on BV173 cells (WT1 mRNA +)
# [11] = biological target: HLA-A2 on HLA-A2+/WT1+ SET2 cells (WT1 mRNA positive; WT1 126-134 peptide not detected by mass spectrometry of eluted HLA peptides); assay: flow cytometry on SET-2 cells (WT1 mRNA +)
# [12] = biological target: HLA-A2/WT1 126-134 complex on T2 cells (human); assay: flow cytometry, T2 cells loaded with 10^-4 M WT1 peptide
# [13] = biological target: HLA-A2 on HLA-A2+ cells that do not express WT1 (tumor cell lines, normal primary cells); assay: flow cytometry on 501A melanoma cells (WT1 mRNA -)
# [14] = biological target: HLA-A2/Tyrosinase369-377 complex on cells (human); assay: flow cytometry, T2 cells loaded with 10^-4 M peptide; design: reference not given here
# P68 … (Homo sapiens) = assay: as above; design: reference not given here
# [15] = biological target: HLA-A2/WT1-S10 on T2 cells (human); assay: flow cytometry, peptide-loaded T2 cells (10^-4-10^-5 M)
# [16] = biological target: HLA-A2/WT1-S11 on T2 cells (human); assay: as above
# [17] = biological target: HLA-A2/WT1-S13 on T2 cells (human); assay: as above
# [18] = biological target: HLA-A2/WT1-S16 on T2 cells (human); assay: as above
# [19] = biological target: HLA-A2/WT1-S22 on T2 cells (human); assay: as above
# [20] = biological target: HLA-A2/WT1-S6 on T2 cells (human); assay: as above
# [21] = biological target: HLA-A2/WT1-S7 on T2 cells (human); assay: as above
# [22] = biological target: HLA-A2/WT1 126-134 complex on T2 cells (human); assay: flow cytometry, T2 cells loaded with WT1 peptide 1x10e-4M
# [23] = biological target: HLA-A2/WT1 126-134 complex on T2 cells (human); assay: flow cytometry, T2 cells loaded with WT1 peptide 1x10e-5M
# [24] = biological target: HLA-A2/WT1 126-134 complex on T2 cells (human); assay: flow cytometry, T2 cells loaded with WT1 1x10e-4M in DMSO
# [25] = biological target: single-chain recombinant HLA-A2/WT1 126-134 complex (human); assay: SPR (ProteOn), biotinylated scHLA-A2/WT1 on NeutrAvidin, Fab as analyte; faster dissociation told in words
substance,measurement,setting,value
ESK1 TCR-like antibody (IgG),MFI,[1],1.2
same,MFI,[2],1.9
same,MFI,[3],1
same,MFI,[4],1
same,MFI,[5],1.1
same,MFI,[6],1
same,MFI,[7],1.1
same,MFI,[8],4.3
same,MFI,[9],5.2
same,MFI,[10],8.1
same,MFI,[11],26.3
same,MFI,[12],18
same,MFI,[13],10.7
same,MFI,[14],1
same,MFI,P68 … (Homo sapiens),1
same,MFI,[15],1.4
same,MFI,[16],1.1
same,MFI,[17],1.1
same,MFI,[18],1.1
same,MFI,[19],1.1
same,MFI,[20],5
same,MFI,[21],3.1
same,MFI,[22],17.9
same,MFI,[23],1.6
same,MFI,[24],17.9
ESK1 TCRL Fab,Kd,[25],200 nM
